This note sets out measurements from patent US20260263521A1 (AIMED BIO, published 2026).

Assay [1] has as its target T1, recombinant human CD200R1 Fc chimera protein, CF (R&D systems, 3414-CD) (human, UniProt Q8TD46 27-266).
T1 construct: Bought; also called CD200R1-Fc protein; human CD200R1 Fc protein; Fc part of the bought chimera not given
T1 sequence (looked up): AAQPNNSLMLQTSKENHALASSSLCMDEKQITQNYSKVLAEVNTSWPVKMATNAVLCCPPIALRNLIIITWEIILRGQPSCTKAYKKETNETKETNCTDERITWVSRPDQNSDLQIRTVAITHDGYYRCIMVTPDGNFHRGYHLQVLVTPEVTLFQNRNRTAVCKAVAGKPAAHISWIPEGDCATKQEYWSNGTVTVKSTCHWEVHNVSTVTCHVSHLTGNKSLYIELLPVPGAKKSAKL
In words: competition ELISA: antibody on coated human CD200R1-Fc, competitor rhCD200-Fc at 1 µg/mL, bound CD200 detected. On the procedure:
96-well plates were coated with human CD200R1 (R&D systems, 3414-CD) recombinant protein at a concentration of 2 μg/mL at 4° C. for 16 hours, and blocked with 3% skim milk for 1 hour. […] The result was washed with PBST and distilled water, and the samples were bound with Pierce™ High Sensitivity Streptavidin-HRP (Thermo Scientific, 21130) at room temperature for 1 hour, and then washed again with PBST and distilled water. TMB substrate solution (Thermo Scientific, 34029, 1-Step™ Ultra TMB-ELISA substrate solution) was added to develop the color. The reaction was stopped with stop solution (Invitrogen, SS04, ELISA Stop Solution).

Assay [2] concerns the target T1, recombinant human CD200R1 Fc chimera …. In words: ELISA, plate-bound human CD200R1-Fc (2 ug/mL), IgG 0.0192-300 nM, anti-human IgG F(ab')2-HRP, OD 450 nm; panel 'human CD200R1'. The protocol: 96-well plates were coated with human CD200R1 (R&D systems, 3414-CD) and mouse CD200R1 protein (R&D systems, 2554-CD) at a concentration of 2 μg/mL at 4° C. for 16 hours and then were blocked with 3% skim milk.
Color was developed with a TMB substrate solution (Thermo Scientific, 34029, 1-Step™ TMB-ELISA Ultra Substrate Solution). The color reaction was stopped with stop solution (Invitrogen, SS04, ELISA Stop Solution). The absorbance was measured at an optical density of 450 nm.
On the technique in general: An ELISA detects its analyte on a solid surface through an enzyme-linked reagent.

Assay [3] concerns the target T2, human CD200RLa (Sino Biological, 11620-H08H) recombinant protein (human, UniProt Q6Q8B3 24-239).
T2 construct: Bought; construct not described
T2 sequence (looked up): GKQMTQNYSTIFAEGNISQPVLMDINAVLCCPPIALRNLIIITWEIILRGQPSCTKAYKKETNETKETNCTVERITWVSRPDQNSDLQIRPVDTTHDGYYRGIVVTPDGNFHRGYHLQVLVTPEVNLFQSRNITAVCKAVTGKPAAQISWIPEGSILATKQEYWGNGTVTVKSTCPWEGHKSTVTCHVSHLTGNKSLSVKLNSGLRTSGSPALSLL
In words: ELISA, plate-bound human CD200RLa (2 ug/mL), antibody 0.0192-300 nM, O.D 450 nm; panel 'recombinant human CD200RLa'. In a few lines:
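Plates coated overnight (16 h, 4° C) with human or cynomolgus CD200RLa recombinant protein, blocked with 3% skim milk; bound antibody detected by TMB colour development, reaction stopped before reading.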

Assay [4] has as its target T3, human CD200R1 expressed on cells (Jurkat-CD200R1, U937-CD200R1, HH cells) (human, UniProt Q8TD46 25-348).
T3 construct: whole, on cells; also called HH (CRL-2105); cell surface-expressed CD200R1
T3 sequence (looked up): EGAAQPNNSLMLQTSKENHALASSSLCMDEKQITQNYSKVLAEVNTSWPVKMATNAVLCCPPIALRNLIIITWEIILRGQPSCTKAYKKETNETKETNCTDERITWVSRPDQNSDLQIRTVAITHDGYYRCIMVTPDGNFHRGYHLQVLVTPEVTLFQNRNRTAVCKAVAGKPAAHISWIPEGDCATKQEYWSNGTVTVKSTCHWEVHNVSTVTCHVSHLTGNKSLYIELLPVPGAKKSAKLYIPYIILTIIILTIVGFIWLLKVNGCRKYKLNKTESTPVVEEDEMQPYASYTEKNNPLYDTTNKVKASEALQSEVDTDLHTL
In words: flow cytometry on Jurkat-CD200R1 and HH cells, 500 nM antibody in IgG1 form. The protocol:
The cells were washed by centrifugation at 130 g for 5 minutes. The cells were seeded onto 96-well round-bottom plates (SPL, #34296) at a density of 1×10⁵ cells/well in Flow cytometry staining buffer (Invitrogen, #00-4222-26) or FACS buffer. […] After incubation for 1 hour at 4° C., the cells were treated with Alexa-647 Goat anti-human IgG (H+L) cross-adsorbed secondary antibody (Invitrogen, #A21445) and incubated at 4° C. for an additional 30 minutes. After washing twice with FACS buffer, flow cytometry analysis was performed using a Novocyte Flow cytometer (Agilent).

Assay [5] addresses T4, mouse CD200R1 protein (R&D systems, 2554-CD) (mouse, UniProt Q9ES57 26-238, limits assumed).
T4 construct: Bought; construct not described
T4 sequence (looked up): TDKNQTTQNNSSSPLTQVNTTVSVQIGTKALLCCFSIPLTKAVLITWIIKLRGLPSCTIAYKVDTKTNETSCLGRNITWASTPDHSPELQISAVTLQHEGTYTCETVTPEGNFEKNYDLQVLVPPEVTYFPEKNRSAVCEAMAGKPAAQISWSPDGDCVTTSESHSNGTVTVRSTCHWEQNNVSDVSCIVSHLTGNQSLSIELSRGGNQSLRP
The experiment in a line: ELISA, plate-bound mouse CD200R1 (2 ug/mL), IgG 0.0192-300 nM, OD 450 nm; panel 'mouse CD200R1'. In a few lines: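 Wells coated with antigen at 2 μg/mL (4 °C, 16 h) and blocked with 3% skim milk before IgG addition. Bound antibody developed with TMB, reaction stopped, absorbance read at 450 nm.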

Assay [6] has as its target T5, Hybrid CD200R1 MH (mouse;human, UniProt Q9ES57;Q8TD46).
T5 construct: single domain; mouse D1 over human D2; also called MH hybrid domain; P001 MH domain
T5 sequence (hybrid extracellular part, looked up): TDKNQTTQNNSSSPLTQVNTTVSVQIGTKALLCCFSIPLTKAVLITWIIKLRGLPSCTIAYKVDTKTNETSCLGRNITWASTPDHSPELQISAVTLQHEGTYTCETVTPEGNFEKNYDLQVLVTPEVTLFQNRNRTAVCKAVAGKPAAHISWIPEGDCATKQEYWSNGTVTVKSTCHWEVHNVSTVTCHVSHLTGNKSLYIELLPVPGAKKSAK
The experiment in a line: ELISA, plate-bound MH hybrid (1 ug/mL), antibody 0.0192-300 nM, O.D 450 nm; panel 'P001 MH domain-3)'. The protocol: Recombinant proteins were produced from the extracellular Ig-like V-type domain and Ig-like C2-type domain of human CD200R1, each designed as human-mouse (HM hybrid domain) and mouse-human (MH hybrid domain) recombinant proteins. A 96-well plate was coated at a concentration of 1 μg/mL with each protein at 4° C. for 16 hours and blocked with 3% skim milk. […] After color development with TMB substrate solution (Thermo Scientific, 34029, 1-Step™ Ultra TMB-ELISA Substrate Solution), the color reaction was stopped with a stop solution (Invitrogen, SS04, ELISA Stop Solution), and the absorbance was measured at an O.D. of 450 nm.

Where a chain is given by its changes, count along the chain named.

B1: P001002 (IgG) (antibody, V domains shown)
VH: EVQLLESGGGLVQPGGSLRLSCAASGFTFSSYAMSWVRQAPGKGLEWVSWISYDSSSKYYADSVKGRFTISRDNSKNTLYLQMNSLRAEDTAVYYCARGVVQPYLWTEFDYWGQGTLVTVSS
VL: QSVLTQPPSASGTPGQRVTISCSGSSSNIGSNYVNWYQQLPGTAPKLLIYSDSHRPSGVPDRFSGSKSGTSASLAISGLRSEDEADYYCGSWDDSLSGYVFGGGTKLTVL
As a reminder, the IC50 is the concentration at which inhibition is half-maximal. In general, EC50 (read off the curve) refers to the concentration needed to bring the measured effect to its halfway point. As for B1, in assay [1], the IC50 came out at 11.5 nM. For the same molecule, the 50% effective concentration (EC50 (read off the curve)) in assay [2] is about 0.8 nM. Moreover, the binding result in assay [3] and in assay [5] was “no binding (tested: 300 nM)” throughout. Further, in assay [4], the “MFI normalized to P001017 (chimeric OX108), %” value is over 50%.

B2: P001012 (IgG) (antibody, V domains shown)
VH: EVQLLESGGGLVQPGGSLRLSCAASGFTFSGYDMSWVRQAPGKGLEWVSGISSSGGNKYYADSVKGRFTISRDNSKNTLYLQMNSLRAEDTAVYYCARAIRPCISAPCYYDDAMDVWGQGTLVTVSS
VL: B1 VL with S23T, N35S, Q38R, H54Q, D94Y, G98A
For B2, the binding result in assay [6], in assay [3] and in assay [5] was “no binding (tested: 300 nM)” each time.
